Assay results taken from PMC3376891 (Cell, 2012).

Key:
[1] = Far-UV CD spectroscopy of peptides; type: physicochemical; settings: aqueous solution / buffer (Figure S2D)
[2] = salt-free buffer; ref Bowie and Sauer, 1989; cited from earlier work

Row | Substance | Secondary structure by far-UV CD [1] | Unfolding behavior of Arc upon dilution [2]
1 | neuropeptide Y [Pep1] | α helix | –
2 | Arc: 55 aa Arc repressor, a client protein of both chaperones (MKGMSKMPQFNLRWPREVLDLVRKVAEENGRSVNSEIYQRVMESFKKEGRIGA; UniProt P03050 1-53, looked up) | – | rapidly dissociate and slowly unfold upon dilution into salt-free buffer without forming aggregates
